Source: the supplement of paper PMC12042874
± gives the uncertainty stated by the source.

Assay: amyloid nucleation score (Sup35N fusion, yeast selection) (log enrichment); library NNK3; higher = more nucleation; inactive = no reads after selection
In short: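 In psi-negative yeast, Sup35N fusions carrying peptides of 20 random codons were induced with 100 μM copper sulfate for 24 hours. The cells then grew 7 days at 30°C on medium lacking adenine and uracil, and plasmid inserts from input and output were Illumina-sequenced, excluding sequences with under 100 input reads. Nucleation score is the DiMSum log enrichment of output over input reads, centred on the mode score of non-aggregating sequences.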

Row | Substance | amyloid nucleation score
1 | LRVQHFDTFNPANGSTPKVG | inactive
2 | LRVVISLVIYMRSSTRICSV | inactive
3 | LRYLIYTNYFRLFAWLNSCK | inactive
4 | LSCFNSVAHCDVNSGMFQIV | inactive
5 | LSEFYPAMRSTTTPVQNVSG | inactive
6 | LSELSRSARVLMFQLFMSRC | 1.87 ± 0.081
7 | LSFLTHCRHSWVRVRDILWA | inactive
8 | LSGACVHSAAGSALATQYAR | inactive
9 | LSGANYLLIRNEGM | inactive
10 | LSGKWNKMVCRLVTSKLIFE | inactive
11 | LSGLRNAVERVVAGFIHGRV | inactive
12 | LSIIRKVADRGDPSDLYKMV | inactive
13 | LSILHYSLNCLYHRSYMCIL | inactive
14 | LSITDVGI | inactive
15 | LSIVITRYDMSCSAETMFNL | inactive
16 | LSLLFALLAFEGVRASLSWG | inactive
17 | LSLMSSVGCRCSVFSWLYVN | inactive
18 | LSLNMVTDGIDDNGGNG | inactive
19 | LSMLI | inactive
20 | LSNFITTLSTWITLSI | inactive
21 | LSNQLKDEYHCMWMWWVCPN | 1.29 ± 0.13
22 | LSRCMWDSDMYRGERYGRRR | inactive
23 | LSRGDLLEYR | inactive

Row | Substance | amyloid nucleation score
24 | LSRLGWYRFCTIMGCYFWIL | inactive
25 | LSRRNFIRNNVVQ | inactive
26 | LSRSWCWRR | inactive
27 | LSSLVSSSTSCWLWIRTNRL | inactive
28 | LSSVKCSKWSIFMYMRQYIW | inactive
29 | LSTENLLVYMWDRLNSILKG | inactive
30 | LSTNTKSKTPYNVRMSLTGG | 0.49 ± 0.34
31 | LSTWSHPSCDRTYVNLKNIV | inactive
32 | LSVMDGTSYAGCELKNVEGW | inactive
33 | LSVMNSVRTWYIIDFATFSC | inactive
34 | LSWDVYSRHFG | 2.31 ± 0.076
35 | LSYFSLLGFRYSRGVMGYQM | inactive
36 | LSYLFFKPFWA | 0.357 ± 0.74
37 | LSYNRKEYGNRPGFSEYSST | inactive
38 | LSYSSRTRCMLLSLYWCSIR | inactive
39 | LSYYVS | inactive
40 | LTCPSFCVSRLRESWDESLS | inactive
41 | LTFISLSLGPDSRFSMTKYY | inactive
42 | LTFSSSHCVIMWQFLCKLVG | inactive
43 | LTGFYYFTAYVCPNLILVTR | 0.878 ± 0.14
44 | LTGRISIARFEVDLGFGCPS | 0.682 ± 0.18
45 | LTLNSKVTDM | inactive
46 | LTMALYWTCSLTHILSYGID | 0.062 ± 0.23

Row | Substance | amyloid nucleation score
47 | LTNRADE | inactive
48 | LTRLSRNHVVRWRYIREGGW | inactive
49 | LTSGVNRISQQPWLSLVDIG | inactive
50 | LTVRSHHQAGDMCRRRAISP | inactive
51 | LVASSYS | inactive
52 | LVFHQDMCGNYYFRH | 0.953 ± 0.13
53 | LVFHYRARKGLSIIG | inactive
54 | LVGNHVSVAIISLVPLSFPH | 2.06 ± 0.067
55 | LVISNIFRPHSVPWIIVENS | inactive
56 | LVKPNVDFVT | inactive
57 | LVKRCVVGFTHFPTIYTCIQ | inactive
58 | LVLWMVDTSFAGSVDVSEMA | inactive
59 | LVMACCNIMKSATMIILYTM | 1.26 ± 0.093
60 | LVMKQRLIMLYVKLNKAFLA | inactive
61 | LVNIDLFNDYRAVCGLLTRD | inactive
62 | LVNLAELDFVECCLENKMQW | inactive
63 | LVPIVVGKRFPIYVGVGPKG | inactive
64 | LVRHARNKDNLFGN | inactive
65 | LVSDEPNLGFDN | inactive
66 | LVSFWSVRFIICYLRLGLSC | inactive
67 | LVSKAGLSLRLKG | inactive
68 | LVSVGSIVTSLEFNTGCLWA | inactive
69 | LVVGISRPMSTGSMASWQWR | inactive

Row | Substance | amyloid nucleation score
70 | LVVIDTIIHCLFKTAQCAWF | inactive
71 | LVVKFSLDKWPRQNVSSLAS | inactive
72 | LVVNRDYFCRSVGPIVLLEP | inactive
73 | LVWSSSEVVFFA | inactive
74 | LVWYKSDLISIVRHTVDSCC | inactive
75 | LVYRMMGSWVGPIRVYFNML | inactive
76 | LVYSDCHRIISHWFFRYTWQ | inactive
77 | LWHVF | inactive
78 | LWIIKGYKSYSNHQWNWGM | inactive
79 | LWINCSWMFNWM | 2.43 ± 0.07
80 | LWLVIN | inactive
81 | LWMCLLMRRR | inactive
82 | LWTYIWDRFEDPVECLRWWN | inactive
83 | LWVSLFVSDVTRLFCLGFVT | inactive
84 | LWVTM | 1.37 ± 0.14
85 | LWYHWHNA | inactive
86 | LWYSCLVSRSSIVSHGWVGL | inactive
87 | LWYYCTQEVIARRDEKA | inactive
88 | LYAFRDSCDTFSC | inactive
89 | LYCCTGEHGSLASVCSSTLT | -0.852 ± 1.5
90 | LYELGQKFLVGHWQRGLKP | inactive
91 | LYGLVWYTQVGLLNVYSKIY | 1.24 ± 0.18
92 | LYLAMRENMWFEPEVNGCYG | inactive

Row | Substance | amyloid nucleation score
93 | LYLGLFVSWCSLKSTAWFGK | inactive
94 | LYLRQKYLRALTNFNFPRAT | inactive
95 | LYLRV | inactive
96 | LYLSLFGQVPYSS | -0.473 ± 0.98
97 | LYLTSCDIYGAGTIGRWVAV | inactive
98 | LYMFHCAFILSIFMFHTPVH | inactive
99 | LYMSWAKTLFGECNCSHVLL | inactive
100 | LYNRKHFTSM | -0.638 ± 0.96
101 | LYQRYMDMTSYCS | inactive
102 | LYRVLSYDLRLDKWCYKTLW | inactive
103 | LYSECNDPNKA | inactive
104 | LYSFSANNDMVHMYRNQVRF | inactive
105 | LYTAATLGSTRLAYCKKEWG | inactive
106 | LYTDVEYRVWCVTFLVRPSK | inactive
107 | LYVFCLAILPLDVLRFSLML | inactive
108 | LYVFRCHLVVNDLNATNCSR | inactive
109 | LYVYTMR | inactive
110 | LYWMVSMTTDR | inactive
111 | LYWRSTGVSVWVRWVLYG | inactive
112 | MALEVFF | inactive
113 | MALWASSKAEVIVVIKCLGD | inactive
114 | MAMLS | inactive
115 | MAQIRATIFMMMSANVDRYM | inactive

Row | Substance | amyloid nucleation score
116 | MAVLHSLFVKVQLMTSNFS | inactive
117 | MCDKV | inactive
118 | MCMSAFEGSSIICDCMVVLL | 1.85 ± 0.088
119 | MCMYVKMYLNGSLFVYMTSK | inactive
120 | MCQAIDSNTYWYLAHCGNSS | 0.494 ± 0.25
121 | MCSAEA | inactive
122 | MCTNYYITCRSKSCVICRRI | 2.31 ± 0.059
123 | MDEVWFPSKGCDLAVRNCLM | inactive
124 | MDKYTRTRPQTRGRAVSCYY | inactive
125 | MDLMPSYSTWKLFFKAI | inactive
126 | MDQMPKKYLVLAAAAVVRMV | inactive
127 | MDVVLRINLKQGRYPGTNAH | 2.1 ± 0.091
128 | MELSGSIMRIEMLYFFMRHK | inactive
129 | MEVDQTYVRIWC | 1.31 ± 0.14
130 | MFFQLVCYFNLSTVMTSYFE | 0.593 ± 0.14
131 | MFGNIRTFAPTITCMGDFTL | inactive
132 | MFGWRNSTLAVKAGSDTRLP | inactive
133 | MFKITACIFNIAYSSWFFST | inactive
134 | MFVGP | inactive
135 | MFVRYIAISYWYQLTWEFSV | inactive
136 | MGHDCHRDW | inactive
137 | MGLLSTFFVEFFKT | inactive
138 | MGNFSFE | inactive

Row | Substance | amyloid nucleation score
139 | MGNYRALCLLLTWLRFLAIE | -0.015 ± 0.96
140 | MGPSVMFCIDLSSWKHLIRL | 0.87 ± 0.16
141 | MGSGIFCDLFHGVMYCMQVR | inactive
142 | MGYPTISFCFNVYAFSVRIV | 0.697 ± 0.2
143 | MHATIMVVDRESFHGLGWKS | inactive
144 | MIFLLTSIL | inactive
145 | MILCLLRKAQFCY | inactive
146 | MILFC | inactive
147 | MINWYGRTNPLCDPGLLRGI | inactive
148 | MIVARMLVSIYKSWTIILRY | inactive
149 | MIYAFVGYGVGTSGGVARES | inactive
150 | MIYSYTNFGNIWKVCQVMRH | 2.39 ± 0.057
151 | MIYYMLWTYWALPKPWNEYI | 0.971 ± 0.16
152 | MKDMSFTYLLFKSHCAWVSL | inactive
153 | MKLWFNTARLDMKVSKTVYS | inactive
154 | MKYYVR | inactive
155 | MLCDVSKVDLSRLLGAGVYD | inactive
156 | MLELLTFTDFLGTTDITRNS | -0.113 ± 0.39
157 | MLFHDSVSSTWRIFELCSRC | inactive
